Laboratory results: article PMC7884711, “Identification of efficient prokaryotic cell-penetrating peptides with applications in bacterial biotechnology” (Communications Biology, 2021)
Where no end group is shown, it is not given here.

B1: I-SceI (No CPP): meganuclease I-SceI without CPP, control (protein, UniProt P03882 1-235, looked up)
Intron-encoded endonuclease …: MKNIKKNQVMNLGPNSKLLKEYKSQLIELNIEQFEAGIGLILGDAYIRSRDEGKTYCMQFEWKNKAYMDHVCLLYDQWVLSPPHKKERVNHLGNLVITWGAQTFKHQAFNKLANLFIVNNKKTIPNNLVENYLTPMSLAYWFMDDGGKWDYNKNSTNKSIVLNTQSFTFEEVEYLVKGLRNKFQLNCYVKINKNKPIIYIDSMSYLIFYNLIKPYLIPQMMYKLPNTISSETFLK

How the values were obtained:
E. coli DH5α cells [1] = assay: Penetration efficiency of TAMRA-labeled CPPs, electroporation-based method, flow cytometry; assay type: cell-based, Escherichia coli; details: electrocompetent E. coli DH5α, 5 μg TAMRA-CPP, electroporation 1.8 kV; for Cell penetration efficiency (TAMRA fluorescence), Electrooration - Tris buffer: 20 mM Tris-HCl pH 7.5, 1 h; for Cell penetration efficiency (TAMRA fluorescence), Electrooration - DW: distilled water, 1 h
Description: (§1) (Fig. 2a). […] First, we prepared electrocompetent and chemically competent cells.

E. coli DH5α cells [2] = assay: Inhibition of bacterial cell growth by CPPs (Max OD600 relative to control); assay type: cell-based, Escherichia coli; details: for Max OD (%) (Figure 3f): E. coli DH5α diluted 1/1000 in LB, 5 μg TAMRA-CPP (0.1 μg/μL), OD600 monitored 18 h, max OD of treated cells / max OD of control cells; for Growth rate (%): E. coli growth with CPP, relative to control; for Anti-bacterial activity: class (Cytotoxic / Safe), cutoff of 50%
Procedure: E. coli DH5α cells were grown until OD600 = 1 at 37 °C with shaking at 200 rpm. […] Then, cell growth (OD600) was monitored for 18 h by using the Synergy^TM H1 hybrid multi-mode microplate reader (BioTek, Vermont, USA). As a control, we used E. coli cells that were not treated with CPPs.

E. coli DH5α cells [3] = assay: Penetration efficiency of TAMRA-labeled CPPs, non-treated cells (control method), flow cytometry; details: 5 μg TAMRA-labeled CPP (0.1 μg/μL), 1 h, PBS washes
Procedure: For the evaluation and optimization of the electroporation-based method, five efficient CPPs were selected from the previous reports[45],[46] […] The CPP were labeled with TAMRA to trace their penetration into the cytoplasm. First, we prepared electrocompetent and chemically competent cells[46]. As a negative control, we also prepared non-treated cells. After treating the five TAMRA-labeled CPP peptides, either distilled water or 20 mM Tris-Cl (pH = 7.5) was added as a buffer to the E. coli–CPP mixture and incubated at 37 °C for 1 h. After washing the cells, their fluorescence intensities were measured by flow cytometry to quantify CPP delivery efficiency.
Prepared cells at a density of 5 × 10^7 cells/50 μL were treated with 5 μg of TAMRA-labeled CPPs (0.1 μg/μL) and incubated for 1 h at room temperature. After incubation, the cells were washed with 1 × PBS and centrifuged at 7000 rpm for 10 min three times to remove extracellular CPPs.
Then, the cells were washed with 1 × PBS and centrifuged at 7000 rpm for 10 min three times. The fluorescence intensity of the CPPs in E. coli cells was quantitatively measured using a Guava EasyCyte flow cytometer (Millipore, Darmstadt, Germany) with an excitation wavelength of 547 nm and an emission wavelength of 580 nm.

E. coli DH5α cells [4] = assay: Penetration efficiency of TAMRA-labeled CPPs, chemical (CaCl2) treatment method, flow cytometry; assay type: cell-based, Escherichia coli; details: for Cell penetration efficiency (TAMRA fluorescence), Chemical (CaCl2) method - Tris buffer / Cell penetration efficiency (TAMRA fluorescence), Chemical (CaCl2) method - DW: 50 mM CaCl2-treated E. coli DH5α, 5 μg TAMRA-CPP; for Cell penetration efficiency (TAMRA fluorescence), Chemical (CaCl2) method - Tris buffer: 20 mM Tris-Cl pH 7.5, 1 h; for Cell penetration efficiency (TAMRA fluorescence), Chemical (CaCl2) method - DW: 5 × 10^7 cells/50 μL, distilled water, 1 h; for Penetration efficiency (TAMRA FI): TAMRA fluorescence intensity in E. coli, library screen of 98 CPPs
Description: as §1

[5] = system: E. coli carrying target plasmid with I-SceI recognition site; assay: Plasmid removal assay using CPP-conjugated I-SceI; assay type: cell-based, Escherichia coli
Description: To investigate the applicability of CPPs in plasmid removal using a CPP-conjugated I-SceI restriction enzyme, we constructed three different target plasmids containing a different replication origin: a pSC101 origin (low-copy number), ColE1 origin (mid-copy number), and RSF1030 origin (high-copy number). Then, an I-SceI recognition site was inserted into the target plasmids. In addition, for the selection of plasmid-containing cells and counterselection of plasmid-free cells, the tetA gene (tetracycline resistance gene) was introduced into the target plasmids. The selection and counterselection were conducted by using tetracycline and NiCl2, respectively.
For the plasmid removal experiment, three E. coli strains carrying a target plasmid with a different replication origin were prepared. The plasmids contained an I-SceI restriction site and a replication origin (pSC101, ColE1, or RSF1030). […] Then, the buffer was replaced with 1 × CutSmart buffer, because I-SceI requires the Mg^2+ included in the CutSmart buffer[64] as a cofactor. The cells were further incubated at 37 °C for 2 h and then spread on LB agar plates containing 2 mM NiCl2. The colonies grown on NiCl2-containing plates were transferred to an LB agar plate and a tetracycline-containing LB agar plate in order to confirm whether the plasmids were completely removed from the cells.

Molecule | Cell penetration efficiency (TAMRA fluorescence), Electrooration - Tris buffer (E. coli DH5α cells [1]; replicate 1) [A.U.] | Cell penetration efficiency (TAMRA fluorescence), Electrooration - Tris buffer (E. coli DH5α cells [1]; replicate 2) [A.U.] | Cell penetration efficiency (TAMRA fluorescence), Electrooration - Tris buffer (E. coli DH5α cells [1]; replicate 3) [A.U.] | Cell penetration efficiency (TAMRA fluorescence), Electrooration - DW (E. coli DH5α cells [1]; replicate 1) [A.U.] | Cell penetration efficiency (TAMRA fluorescence), Electrooration - DW (E. coli DH5α cells [1]; replicate 2) [A.U.] | Cell penetration efficiency (TAMRA fluorescence), Electrooration - DW (E. coli DH5α cells [1]; replicate 3) [A.U.] | Max OD (%) (Figure 3f) (E. coli DH5α cells [2]; replicate 1) | Max OD (%) (Figure 3f) (E. coli DH5α cells [2]; replicate 2) | Max OD (%) (Figure 3f) (E. coli DH5α cells [2]; replicate 3) | Growth rate (%) (E. coli DH5α cells [2]) | Anti-bacterial activity (E. coli DH5α cells [2]) | Cell penetration efficiency (TAMRA fluorescence), Control (E. coli DH5α cells [3]; replicate 1) [A.U.] | Cell penetration efficiency (TAMRA fluorescence), Control (E. coli DH5α cells [3]; replicate 2) [A.U.] | Cell penetration efficiency (TAMRA fluorescence), Control (E. coli DH5α cells [3]; replicate 3) [A.U.] | Cell penetration efficiency (TAMRA fluorescence), Chemical (CaCl2) method - Tris buffer (E. coli DH5α cells [4]; replicate 1) [A.U.] | Cell penetration efficiency (TAMRA fluorescence), Chemical (CaCl2) method - Tris buffer (E. coli DH5α cells [4]; replicate 2) [A.U.] | Cell penetration efficiency (TAMRA fluorescence), Chemical (CaCl2) method - Tris buffer (E. coli DH5α cells [4]; replicate 3) [A.U.] | Cell penetration efficiency (TAMRA fluorescence), Chemical (CaCl2) method - DW (E. coli DH5α cells [4]; replicate 1) [A.U.] | Cell penetration efficiency (TAMRA fluorescence), Chemical (CaCl2) method - DW (E. coli DH5α cells [4]; replicate 2) [A.U.] | Cell penetration efficiency (TAMRA fluorescence), Chemical (CaCl2) method - DW (E. coli DH5α cells [4]; replicate 3) [A.U.] | also measured
R9-TAT (GRRRRRRRRRPPQ; also: TAMRA label, site not given here) [CPP 14, TAMRA-labeled CPP of the 98-CPP library, one of five used to evaluate delivery methods] | 1652.65 | 2400.94 | 906.944 | 871.282 | 655.834 | 728.231 | 76.3087 | 63.2803 | 64.6762 | 68.0884 | Safe | 29.4004 | 32.4749 | 29.0426 | 247.778 | 278.483 | 297.356 | 1405.86 | 216.364 | 286.408 | Cell penetration efficiency (TAMRA fluorescence), Electrooration - Tris buffer (E. coli DH5α cells [1]; replicate 4): 1858.43 A.U.; Penetration efficiency (TAMRA FI) (E. coli DH5α cells [4]): 1704.74
Rev(34-50) (TRQARRNRRRRWRERQR; also: TAMRA label, site not given here) [CPP 15, TAMRA-labeled CPP of the 98-CPP library, one of five used to evaluate delivery methods] | 1419.77 | 1626.5 | 1629.96 | 772.285 | 531.205 | 564.956 | 73.0516 | 73.4005 | 79.5657 | 75.3393 | Safe | 29.8568 | 31.0533 | 36.163 | 103.028 | 97.4338 | 68.163 | 228.73 | 679.736 | 805.596 | Cell penetration efficiency (TAMRA fluorescence), Electrooration - Tris buffer (E. coli DH5α cells [1]; replicate 4): 1157.23 A.U.; Penetration efficiency (TAMRA FI) (E. coli DH5α cells [4]): 1458.36
ppTG1 (GLFKALLKLLKSLWKLLLKA; also: TAMRA label, position not given here) [CPP 16, TAMRA-labeled CPP of the 98-CPP library, one of five used to evaluate delivery methods] | 299.308 | 307.97 | 322.066 | 116.793 | 316.678 | 302.379 | 61.1865 | 69.0965 | 63.3967 | 64.5599 | Safe | 21.8791 | 18.0245 | 15.0301 | 251.992 | 38.28 | 55.663 | 201.023 | 237.812 | 176.507 | Cell penetration efficiency (TAMRA fluorescence), Chemical (CaCl2) method - Tris buffer (E. coli DH5α cells [4]; replicate 4): 85.7449 A.U.; Cell penetration efficiency (TAMRA fluorescence), Chemical (CaCl2) method - Tris buffer (E. coli DH5α cells [4]; replicate 5): 220.921 A.U.; Penetration efficiency (TAMRA FI) (E. coli DH5α cells [4]): 130.52
B1 | – | – | – | – | – | – | – | – | – | – | – | – | – | – | – | – | – | – | – | – | Plasmid removal efficiency (%) ([5]; plasmid with ColE1 origin (15–20 copies), same protocol, replicate 1): 19.3%; Plasmid removal efficiency (%) ([5]; plasmid with ColE1 origin (15–20 copies), same protocol, replicate 2): 13.3%; Plasmid removal efficiency (%) ([5]; plasmid with ColE1 origin (15–20 copies), same protocol, replicate 3): 14.8%; Plasmid removal efficiency (%) ([5]; plasmid with RSF1030 origin (>100 copies), same protocol, replicate 1): 17.57%; Plasmid removal efficiency (%) ([5]; plasmid with RSF1030 origin (>100 copies), same protocol, replicate 2): 16.88%; Plasmid removal efficiency (%) ([5]; plasmid with RSF1030 origin (>100 copies), same protocol, replicate 3): 17.79%; Plasmid removal efficiency (%) ([5]; plasmid with pSC101 origin (~5 copies), 50 μL protein (0.05 μg/μL), electroporation, Tris-HCl pH 7.5 3 h, CutSmart 2 h 37 °C, 2 mM NiCl2 selection, replicate 1): 16.6%; Plasmid removal efficiency (%) ([5]; plasmid with pSC101 origin (~5 copies), 50 μL protein (0.05 μg/μL), electroporation, Tris-HCl pH 7.5 3 h, CutSmart 2 h 37 °C, 2 mM NiCl2 selection, replicate 2): 15%; Plasmid removal efficiency (%) ([5]; plasmid with pSC101 origin (~5 copies), 50 μL protein (0.05 μg/μL), electroporation, Tris-HCl pH 7.5 3 h, CutSmart 2 h 37 °C, 2 mM NiCl2 selection, replicate 3): 15.64%
